Assay results from the Immune Epitope Database (IEDB).
Each block holds one sequence with its values, some of them ahead of it.

Assays:
HLA-B*44:03 = assay: IEDB peptide-MHC binding, purified MHC/competitive/radioactivity; filed as Kd, often an IC50 or EC50 that approximates it; ≥ and ≤ were set here for values at or beyond the usual limits of such assays
HLA-B*40:01 [1] = assay: as above
HLA-B*44:02 [2] = assay: as above
HLA-A*03:01 [3] = assay: IEDB peptide-MHC binding, purified MHC/competitive/fluorescence; filed as Kd, often an IC50 or EC50 that approximates it; ≥ and ≤ were set here for values at or beyond the usual limits of such assays
HLA-A*24:03 = assay: IEDB peptide-MHC binding, purified MHC/direct/fluorescence; filed as Kd, often an IC50 or EC50 that approximates it; ≥ and ≤ were set here for values at or beyond the usual limits of such assays
HLA-B*15:03 = assay: IEDB peptide-MHC binding, purified MHC/competitive/radioactivity; filed as Kd, often an IC50 or EC50 that approximates it; ≥ and ≤ were set here for values at or beyond the usual limits of such assays
HLA-A*26:01 [4] = assay: IEDB peptide-MHC binding, purified MHC/competitive/fluorescence; filed as Kd, often an IC50 or EC50 that approximates it; ≥ and ≤ were set here for values at or beyond the usual limits of such assays; conditions: source organism: Escherichia coli
HLA-B*44:02 [5] = assay: IEDB peptide-MHC binding, purified MHC/direct/fluorescence; filed as Kd, often an IC50 or EC50 that approximates it; ≥ and ≤ were set here for values at or beyond the usual limits of such assays
HLA-B*18:01 = assay: as above; conditions: source organism: dengue virus type 2
HLA-A*32:01 = assay: IEDB peptide-MHC binding, purified MHC/competitive/radioactivity; filed as Kd, often an IC50 or EC50 that approximates it; ≥ and ≤ were set here for values at or beyond the usual limits of such assays; conditions: source organism: Vaccinia virus WR
HLA-B*08:01 [6] = assay: as above; conditions: source organism: Vaccinia virus WR
HLA-A*30:01 = assay: as above; conditions: source organism: Vaccinia virus WR
HLA-B*15:01 [7] = assay: as above; conditions: source organism: Vaccinia virus WR
HLA-B*40:01 [8] = assay: IEDB peptide-MHC binding, purified MHC/direct/fluorescence; filed as Kd, often an IC50 or EC50 that approximates it; ≥ and ≤ were set here for values at or beyond the usual limits of such assays
HLA-B*07:02 = assay: as above
HLA-A*31:01 = assay: as above
HLA-A*01:01 = assay: as above; conditions: source organism: Bacillus anthracis
HLA-B*08:01 [9] = assay: as above
HLA-B*58:01 = assay: as above
HLA-A*69:01 = assay: as above
HLA-B*27:05 = assay: as above
HLA-A*11:01 = assay: as above
HLA-A*26:01 [10] = assay: as above
HLA-A*03:01 [11] = assay: as above
HLA-A*02:01 = assay: as above
HLA-B*15:01 [12] = assay: as above
[13] = source organism: Dengue virus 4 Philippines/H241/1956
[14] = source organism: Dengue virus 2 Jamaica/1409/1983
[15] = source organism: Mammarenavirus lassaense
[16] = source organism: Vaccinia virus Copenhagen
[17] = source organism: Dengue virus 3 Martinique/1243/1999
[18] = source organism: Vaccinia virus WR
[19] = source organism: Bacillus anthracis
[20] = source organism: Aggregatibacter actinomycetemcomitans

Sequence: ADTGCAVSW
- Kd (HLA-B*44:03; [13]): 0.224 µM

Sequence: AEMEEALRGL
- Kd (HLA-B*40:01 [1]; [14]): 0.013 µM
- Kd (HLA-B*44:02 [2]; [14]): 0.0176 µM
- Kd (HLA-B*44:03; [14]): 0.0316 µM

Sequence: AMSTWSFYH
- Kd (HLA-A*03:01 [3]; source organism: Yersinia pestis Nepal516): 0.0133 µM

Sequence: AVLPRDMVF
- Kd (HLA-A*24:03; [15]): 0.11 µM

Sequence: AWENTVVDL
- Kd (HLA-A*24:03; [15]): 1.5 µM

Sequence: CMVICLLSF
- Kd (HLA-B*15:03; [16]): 0.641 µM

- Kd (HLA-A*26:01 [4]): ≥ 20 µM
Sequence: DVSEQLELI

Sequence: EEEQTLTIL
- Kd (HLA-B*44:02 [5]; source organism: dengue virus type 2): ≥ 20 µM
- Kd (HLA-B*18:01): 4.02 µM

Sequence: EESRTIRVL
- Kd (HLA-B*40:01 [1]; [17]): 0.249 µM
- Kd (HLA-B*44:03; [17]): 0.0302 µM

Sequence: EKTQYTNDF
- Kd (HLA-A*32:01): ≥ 77.8 µM
- Kd (HLA-B*08:01 [6]): ≥ 26.7 µM
- Kd (HLA-A*30:01): 1.34 µM
- Kd (HLA-B*15:01 [7]): 12.7 µM
- Kd (HLA-B*15:03; [18]): 0.832 µM

Sequence: EQKLRPNSF
- Kd (HLA-A*32:01): 12.2 µM
- Kd (HLA-B*08:01 [6]): 6.14 µM
- Kd (HLA-A*30:01): 1.01 µM
- Kd (HLA-B*15:01 [7]): 8.99 µM
- Kd (HLA-B*15:03; [18]): 1.1 µM

Sequence: ESVKFGNSI
- Kd (HLA-B*15:03; [18]): 0.102 µM

Sequence: FHVRRLLKF
- Kd (HLA-B*15:03; [16]): 0.0213 µM

Sequence: FIFGKMGAG
- Kd (HLA-B*40:01 [8]; [19]): ≥ 20 µM
- Kd (HLA-B*07:02; [19]): ≥ 20 µM
- Kd (HLA-A*31:01; [19]): ≥ 20 µM
- Kd (HLA-A*01:01): ≥ 20 µM
- Kd (HLA-B*08:01 [9]; [19]): ≥ 20 µM
- Kd (HLA-B*58:01; [19]): ≥ 20 µM
- Kd (HLA-A*69:01; [19]): ≥ 20 µM
- Kd (HLA-B*44:02 [5]; [19]): ≥ 20 µM
- Kd (HLA-B*27:05; [19]): ≥ 20 µM
- Kd (HLA-A*11:01; [19]): ≥ 20 µM
- Kd (HLA-A*26:01 [10]; [19]): 5.37 µM
- Kd (HLA-A*03:01 [11]; [19]): ≥ 20 µM
- Kd (HLA-A*02:01; [19]): ≥ 20 µM
- Kd (HLA-B*15:01 [12]; [19]): ≥ 20 µM

Sequence: FLSNCEKQF
- Kd (HLA-B*15:03; [18]): 0.021 µM

- Kd (HLA-A*03:01 [3]; source organism: Fusobacterium vincentii ATCC 49256): 0.0395 µM
Sequence: FSFGDYFKK

Sequence: FSILFSNNF
- Kd (HLA-B*15:03; [18]): 0.0297 µM

Sequence: HEMYWVSGV
- Kd (HLA-B*44:02 [2]; [13]): 0.0515 µM

Sequence: IIIPLSVSI
- Kd (HLA-A*32:01): 0.0696 µM
- Kd (HLA-B*08:01 [6]): ≥ 31 µM
- Kd (HLA-A*30:01): 1.29 µM
- Kd (HLA-B*15:01 [7]): 0.298 µM
- Kd (HLA-B*15:03; [18]): 1.23 µM

Sequence: IKVTAASPM
- Kd (HLA-B*15:03; [18]): 0.00276 µM

Sequence: IMTSGVIPF
- Kd (HLA-B*15:03; [16]): 0.000223 µM

Sequence: ISSRESVSF
- Kd (HLA-B*15:03; [16]): 0.0121 µM

Sequence: ITNTEINSF
- Kd (HLA-A*32:01): 0.413 µM
- Kd (HLA-B*15:03; [18]): 0.421 µM

Sequence: KKMQSYNSV
- Kd (HLA-B*15:03; [18]): 0.00281 µM

Sequence: KLFFQVIAK
- Kd (HLA-A*03:01 [3]; source organism: Yersinia pestis Antiqua): 0.0065 µM

Sequence: KLVIFPSHL
- Kd (HLA-B*15:03; [18]): 1.17 µM

- Kd (HLA-B*40:01 [8]; [20]): ≥ 20 µM
- Kd (HLA-B*07:02; [20]): ≥ 20 µM
- Kd (HLA-A*24:03; [20]): ≥ 20 µM
- Kd (HLA-A*31:01; [20]): ≥ 20 µM
- Kd (HLA-B*08:01 [9]; [20]): ≥ 20 µM
- Kd (HLA-B*58:01; [20]): ≥ 20 µM
- Kd (HLA-A*69:01; [20]): ≥ 20 µM
- Kd (HLA-B*27:05; [20]): ≥ 20 µM
- Kd (HLA-A*11:01; [20]): ≥ 20 µM
- Kd (HLA-A*26:01 [10]; [20]): ≥ 20 µM
- Kd (HLA-A*03:01 [11]; [20]): ≥ 20 µM
- Kd (HLA-A*02:01; [20]): ≥ 20 µM
- Kd (HLA-B*15:01 [12]; [20]): ≥ 20 µM
Sequence: KYDDRIQSQ
